What all share (test): cell-based or functional assay
One test has as its target T1, PLCβ3-Δ892 ΔXY1 (Homo sapiens, UniProt Q01970 10-892, ΔXY1 (residues 471–569)).
T1 sequence (looked up): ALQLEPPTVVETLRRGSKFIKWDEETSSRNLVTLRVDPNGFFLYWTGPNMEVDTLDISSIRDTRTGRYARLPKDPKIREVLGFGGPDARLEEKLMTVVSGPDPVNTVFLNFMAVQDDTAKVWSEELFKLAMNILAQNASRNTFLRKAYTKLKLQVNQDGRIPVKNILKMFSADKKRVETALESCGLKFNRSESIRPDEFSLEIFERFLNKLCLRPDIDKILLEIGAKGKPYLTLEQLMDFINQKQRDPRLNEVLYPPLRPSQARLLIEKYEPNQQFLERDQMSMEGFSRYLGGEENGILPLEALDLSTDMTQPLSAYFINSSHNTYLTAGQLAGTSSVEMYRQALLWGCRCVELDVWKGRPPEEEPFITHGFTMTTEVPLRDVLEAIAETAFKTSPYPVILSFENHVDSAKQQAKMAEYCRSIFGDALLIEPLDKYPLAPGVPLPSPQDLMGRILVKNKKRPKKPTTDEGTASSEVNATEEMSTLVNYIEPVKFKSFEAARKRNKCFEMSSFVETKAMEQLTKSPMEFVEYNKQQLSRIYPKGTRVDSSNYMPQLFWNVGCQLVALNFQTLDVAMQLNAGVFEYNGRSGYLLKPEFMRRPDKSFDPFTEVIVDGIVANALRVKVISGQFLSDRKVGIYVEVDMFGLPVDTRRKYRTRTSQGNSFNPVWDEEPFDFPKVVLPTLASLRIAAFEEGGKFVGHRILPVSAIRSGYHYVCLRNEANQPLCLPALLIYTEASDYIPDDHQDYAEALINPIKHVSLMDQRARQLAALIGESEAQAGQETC

The target in the next test is T2, PLCβ3-Δ892 ΔXY2 (Homo sapiens, UniProt Q01970 10-892, ΔXY2 (residues 471–584)).
T2 sequence (looked up): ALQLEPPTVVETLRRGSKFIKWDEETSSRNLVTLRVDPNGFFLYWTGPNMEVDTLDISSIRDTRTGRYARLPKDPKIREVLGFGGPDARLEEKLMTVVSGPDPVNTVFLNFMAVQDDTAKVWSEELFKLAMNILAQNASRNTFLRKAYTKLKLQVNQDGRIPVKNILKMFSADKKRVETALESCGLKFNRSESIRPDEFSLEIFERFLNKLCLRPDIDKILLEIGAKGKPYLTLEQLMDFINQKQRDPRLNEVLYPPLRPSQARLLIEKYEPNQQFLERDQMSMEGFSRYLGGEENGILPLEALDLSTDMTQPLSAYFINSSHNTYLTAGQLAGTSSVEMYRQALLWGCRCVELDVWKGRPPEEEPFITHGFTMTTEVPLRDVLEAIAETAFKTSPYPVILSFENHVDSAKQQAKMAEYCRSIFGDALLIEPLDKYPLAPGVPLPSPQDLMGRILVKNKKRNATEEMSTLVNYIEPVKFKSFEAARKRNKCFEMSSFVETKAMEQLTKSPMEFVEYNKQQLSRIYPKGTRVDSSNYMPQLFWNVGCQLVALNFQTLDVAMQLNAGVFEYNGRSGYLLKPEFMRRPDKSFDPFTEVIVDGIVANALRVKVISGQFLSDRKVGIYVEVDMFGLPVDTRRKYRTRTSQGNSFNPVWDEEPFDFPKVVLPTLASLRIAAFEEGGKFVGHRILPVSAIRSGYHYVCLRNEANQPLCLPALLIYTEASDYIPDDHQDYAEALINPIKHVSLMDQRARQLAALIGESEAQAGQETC

For a further test, the target named is T3, PLCβ3 ΔXY1 (Homo sapiens, UniProt Q01970 10-1234, ΔXY1 (residues 471–569)).
T3 sequence (looked up): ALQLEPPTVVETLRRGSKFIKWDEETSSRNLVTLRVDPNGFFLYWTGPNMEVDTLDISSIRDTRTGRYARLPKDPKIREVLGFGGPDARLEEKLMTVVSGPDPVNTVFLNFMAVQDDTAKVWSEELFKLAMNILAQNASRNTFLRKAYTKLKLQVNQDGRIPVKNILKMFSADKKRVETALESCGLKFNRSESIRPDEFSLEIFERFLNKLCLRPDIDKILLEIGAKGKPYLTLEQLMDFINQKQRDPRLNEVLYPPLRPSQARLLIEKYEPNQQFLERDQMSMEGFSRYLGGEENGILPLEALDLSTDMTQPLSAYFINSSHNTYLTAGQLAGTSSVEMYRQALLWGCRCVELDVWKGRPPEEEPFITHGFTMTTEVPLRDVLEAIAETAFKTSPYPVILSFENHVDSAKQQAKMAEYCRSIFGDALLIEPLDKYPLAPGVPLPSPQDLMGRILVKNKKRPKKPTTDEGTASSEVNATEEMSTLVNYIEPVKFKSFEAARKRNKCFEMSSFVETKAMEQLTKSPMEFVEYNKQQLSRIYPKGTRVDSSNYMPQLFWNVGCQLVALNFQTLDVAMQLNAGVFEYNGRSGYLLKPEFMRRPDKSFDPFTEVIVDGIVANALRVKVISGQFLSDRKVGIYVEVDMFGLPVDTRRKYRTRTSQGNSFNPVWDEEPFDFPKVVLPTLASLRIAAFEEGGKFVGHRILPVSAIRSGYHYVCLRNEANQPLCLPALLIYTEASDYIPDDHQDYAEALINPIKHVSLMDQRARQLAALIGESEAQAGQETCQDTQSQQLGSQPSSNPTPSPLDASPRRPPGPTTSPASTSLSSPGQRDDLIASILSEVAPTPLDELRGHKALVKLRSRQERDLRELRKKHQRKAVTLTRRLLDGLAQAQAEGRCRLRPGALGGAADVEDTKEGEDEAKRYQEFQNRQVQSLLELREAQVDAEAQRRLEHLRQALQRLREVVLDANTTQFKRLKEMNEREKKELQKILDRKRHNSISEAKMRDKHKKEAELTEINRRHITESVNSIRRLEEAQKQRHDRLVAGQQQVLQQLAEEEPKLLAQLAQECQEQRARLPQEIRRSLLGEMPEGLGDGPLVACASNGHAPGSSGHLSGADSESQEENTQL

B1: Activated Gαq (Gαq·GDP-ALF4^−) (natural protein, murine, UniProt P21279 7-359, looked up)
chain: MACCLSEEAKEARRINDEIERQLRRDKRDARRELKLLLLGTGESGKSTFIKQMRIIHGSGYSDEDKRGFTKLVYQNIFTAMQAMIRAMDTLKIPYKYEHNKAHAQLVREVDVEKVSAFENPYVDAIKSLWNDPGIQECYDRRREYQLSDSTKYYLNDLDRVADPSYLPTQQDVLRVRVPTTGIIEYPFDLQSVIFRMVDVGGQRSERRKWIHCFENVTSIMFLVALSEYDQVLVESDNENRMEESKALFRTIITYPWFQNSSVILFLNKKDLLEEKIMYSHLVDYFPEYDGPQRDAQAAREFILKMFVDLNPDSDKIIYSHFTCATDTENIRFVFAAVKDTILQLNLKEYNLV
Regarding B1, the “x-fold maximum activity over basal (complex against the PLCβ3 variant alone)” value with PLCβ3-Δ892 ΔXY1 was 2 x-fold; with PLCβ3-Δ892 ΔXY2, 3 x-fold; in the test with PLCβ3 ΔXY1, 4 x-fold.

These data come from paper PMC7885793 (Biochemistry, 2019).
